Assay type in all cases: biochemical
Data set [1] can be described thus: HTP-analysis of supernatants pretreated with acid (MUGal hydrolysis). The settings on record: challenge at pH 3.3; activity of the variant/activity of Rd3BB (SEQ ID NO: 13); yeast supernatant. Summed up: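 Yeast INVSc1 supernatant, GLA variants; acid challenge: McIlvaine pH 3.3-4.3, 37° C., 1-3 h. Assay: MUGal in McIlvaine pH 4.8 plus citrate pH 4.3, 37° C., 30-180 min, Na2CO3 stop, Ex 355/Em 448 nm.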

Data set [2] is described as follows: HTP-analysis of yeast culture supernatants, no challenge (MUGal hydrolysis). To be noted: activity of the variant/activity of Rd3BB (SEQ ID NO: 13), yeast supernatant. The method, boiled down: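 Activity read as 4-methylumbelliferyl α-D-galactopyranoside hydrolysis: fluorescence (355/448 nm) after sodium carbonate stop, following 30-180 min at 37° C with 2 mM MUGal stock at pH 4.6–4.8. Enzyme source is unchallenged culture supernatant of INVSc1 yeast expressing GLA variants, grown 66-84 h at 30° C.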

Data set [3] can be described thus: HTP-analysis of supernatants pretreated with base (MUGal hydrolysis). To be noted: challenge at pH 9.7; activity of the variant/activity of Rd3BB (SEQ ID NO: 13); yeast supernatant. Summed up: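 Supernatants from INVSc1 yeast expressing GLA variants (SD-Ura, 66-84 h, 30° C) were mixed with McIlvaine buffer pH 7.0-8.2 or 200 mM sodium bicarbonate pH 9.1-9.7 and held 1-18 h at 37° C. Residual activity was then measured on MUGal at pH 4.8/4.3, 37° C, 30-180 min, by fluorescence (Ex 355/Em 448 nm).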

Residue numbers refer to the chain shown, from its start.

B1: 617 (protein)
chain: LDNGLARTPTMGWLHWERFMCNLDCQEEPDSCISEKLFMEMAERMVSEGWKDAGYEYLCIDDCWMAPQRDSEGRLQADPQRFPHGIRQLANHVHSKGLKLGIYADVGNKTCAGFPGSFGYYDIDAQTFADWGVDLVKFDGCYCDSLENLADGYKHMSLALNRTGRPIVYSCEWPLYMWPFQKPNYTEIRQYCNHWRNFADIDDSWASIKSILDWTSRNQERIVDVAGPGGWNDPDMLVIGNFGLSWDQQVTQMALWAIAAAPLFMSNDLRHISPQAKALLQDKDVIAINQDPLGKQGYQLRKGDNFEVWERPLSGDAWAVAIINRQEIGGPRSYTIPVASLGKGVACNPACFITQLLPVKRQLGFYNWTSRLKSHINPTGTVLLQLENTQQMSLKDLL
modifications: Synthetic Polypeptide sequence of Variant No. 617 of mature Human GLA
Regarding B1, in data set [1], the “Relative Activity of GLA Variants After Challenge at pH 3.3” value (“Relative Activity … at pH 3.3” for short) is reported as “++ (++ = >5 to 10 relative activity over Rd3BB (SEQ ID NO: 13))”. Also, in data set [2], the “Relative Activity of GLA Variants After No Challenge (NC)” value is recorded as “+ (+ = 1.5 to 5 relative activity over Rd3BB (SEQ ID NO: 13))”. In addition, the “Relative Activity of GLA Variants After Challenge at pH 9.7” value (“Relative Activity … at pH 9.7” for short) in data set [3] was “++ (++ = >5 to 10 relative activity over Rd3BB (SEQ ID NO: 13))”.

B2: 620 (protein)
chain: B1 chain with S47T, V136L, A259M, H271A
modifications: Synthetic Polypeptide sequence of Variant No. 620 of mature Human GLA
Take B2: in data set [1], the “Relative Activity … at pH 3.3” value was “+ (+ = 1.5 to 5 relative activity over Rd3BB (SEQ ID NO: 13))”. For the same molecule, the “Relative Activity of GLA Variants After No Challenge (NC)” value in data set [2] is “− (− = <1.5 relative activity to Rd3BB (SEQ ID NO: 13))”. In data set [3], the “Relative Activity … at pH 9.7” value is “++ (++ = >5 to 10 relative activity over Rd3BB (SEQ ID NO: 13))”.

B3: 622 (protein)
chain: B1 chain with S47N, V136L, A259W, H271A, M392T
modifications: Synthetic Polypeptide sequence of Variant No. 622 of mature Human GLA
In the case of B3, the “Relative Activity … at pH 3.3” value in data set [1] was “− (− = <1.5 relative activity to Rd3BB (SEQ ID NO: 13))”. Moreover, the “Relative Activity of GLA Variants After No Challenge (NC)” value in data set [2] was “+ (+ = 1.5 to 5 relative activity over Rd3BB (SEQ ID NO: 13))”. In addition, in data set [3], the “Relative Activity … at pH 9.7” value is on record as “++ (++ = >5 to 10 relative activity over Rd3BB (SEQ ID NO: 13))”.

B4: 621 (protein)
chain: B1 chain with S47T, V136L, A259E, H271A
modifications: Synthetic Polypeptide sequence of Variant No. 621 of mature Human GLA
As for B4, the “Relative Activity … at pH 3.3” value in data set [1] is reported as “++ (++ = >5 to 10 relative activity over Rd3BB (SEQ ID NO: 13))”. Besides, the “Relative Activity of GLA Variants After No Challenge (NC)” value in data set [2] was “+ (+ = 1.5 to 5 relative activity over Rd3BB (SEQ ID NO: 13))”. Also, in data set [3], the “Relative Activity … at pH 9.7” value is reported as “− (− = <1.5 relative activity to Rd3BB (SEQ ID NO: 13))”.

B5: 619 (protein)
chain: B1 chain with S47T, V136L, A259M, H271A, Q390H
modifications: Synthetic Polypeptide sequence of Variant No. 619 of mature Human GLA
Turning to B5, in data set [1], the “Relative Activity … at pH 3.3” value is “++ (++ = >5 to 10 relative activity over Rd3BB (SEQ ID NO: 13))”. Further, the “Relative Activity of GLA Variants After No Challenge (NC)” value in data set [2] is given as “+ (+ = 1.5 to 5 relative activity over Rd3BB (SEQ ID NO: 13))”. In data set [3], the “Relative Activity … at pH 9.7” value is given as “++ (++ = >5 to 10 relative activity over Rd3BB (SEQ ID NO: 13))”.

B6: 618 (protein)
chain: B1 chain with S47T, V136L, A259M, H271A, Q390M
modifications: Synthetic Polypeptide sequence of Variant No. 618 of mature Human GLA
Regarding B6, the “Relative Activity … at pH 3.3” value in data set [1] is given as “++ (++ = >5 to 10 relative activity over Rd3BB (SEQ ID NO: 13))”. In addition, the “Relative Activity of GLA Variants After No Challenge (NC)” value in data set [2] is “+ (+ = 1.5 to 5 relative activity over Rd3BB (SEQ ID NO: 13))”. Further, the “Relative Activity … at pH 9.7” value in data set [3] is reported as “++ (++ = >5 to 10 relative activity over Rd3BB (SEQ ID NO: 13))”.
